Columns and labels:
[1] = target: His-tagged wild-type cytochrome bc1 complex from Paracoccus denitrificans (Paracoccus denitrificans) (UniProt P05417)
[2] = target: wild-type cytochrome bc1 complex from Paracoccus denitrificans (Paracoccus denitrificans) (UniProt P05417)

horse heart cytochrome c (from UniProt P00004 1-105) (natural protein)
steady-state reduction of cytochrome c by bc1 complex with decylubiquinol, KM [1]: 3.4 µM
steady-state reduction of cytochrome c by bc1 complex with decylubiquinol, kCAT [1]: 328 s⁻¹
steady-state reduction of cytochrome c by bc1 complex with decylubiquinol, KM [2]: 2.3 µM
steady-state reduction of cytochrome c by bc1 complex with decylubiquinol, kCAT [2]: 273 s⁻¹
